The nanobody polyreactivity screen of Harvey et al. (2022)

assay: yeast display, Sf9 membrane polyspecificity reagent, FACS + sequencing; frameworks hold sequencing errors
Method in brief: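 After 36–48 hours of galactose induction, yeast (Saccharomyces cerevisiae BJ5465) displaying a synthetic nanobody library were stained at 4 °C for 1 hour with 10% biotinylated, detergent-solubilized Sf9 membrane reagent. Streptavidin microbeads enriched the stained cells before FACS sorting into low and high (top ~1%) gates on anti-HA and streptavidin fluorescence. Each clone's polyreactivity label reflects its gate of origin.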

Sequence | polyreactivity (PSR sort gate)
QVQLVESGGGLVQAGGSLRLSCAASGRIFVVNAMGWYRQAPGKERELVATITRGASTYADSVKGRFTISRDNAKNTVYLQMNSLKLEDTAVYYCAAAKRPQVVRYDWTKLEYWGQGTQVTVSS | high polyreactivity
QVQLVESGGGLVQAGGSLRLSCAASGRIFVVYAMGWYRQAPGKERELVAAITSSGNTNYADSVKGRFTISRDNAKNTVYLQMNSLKPEDTAVYYCAATRDYSSDYWGQGTEVTVSS | low polyreactivity
QVQLVESGGGLVQAGGSLRLSCAASGRIFVVYAMGWYRQAPGKERELVASITWRGGSTYYADSVKGRFTISRDNAKNTVYLQMNSLKPEDTAVYYCAARYARYLLYDYWGQGTQVTVSS | low polyreactivity
QVQLVESGGGLVQAGGSLRLSCAASGRIFVWNTMGWYRQAPGKERELVAAITSGGSTTYADSVKGRFTISRDNAKNSVSFQMNSLKPEDTAVYYCNTELDLYHPGDDYWGQGTQVTVSS | high polyreactivity
QVQLVESGGGLVQAGGSLRLSCAASGRIFVYNAMGSYRQAPGKERELVAAINSGTITNSADSVKGRFTISRDNGKNTVYLQMNSRIPEDTAVSYCAAPWYPSTDYNYWGQGTQVTVSS | low polyreactivity
QVQLVESGGGLVQAGGSLRLSCAASGRIFVYNAMGWYRQAPGKEWELVATITSGGSTYYADSVKGRFTISRDNAMNTVYLQMNSLKPEDTAVYYCAARRWYVHYFAYGYWGQGTQVTVSS | low polyreactivity
QVQLVESGGGLVQAGGSLRLSCAASGRIFVYYAMGWYRQAPGKERELVAAISSSGGSTYYADSVKGRFTISRDNAKNTVYLQMNSLKPEDTAVYYCNAVTYFSLSYPRHDYWGQGTQVTVSS | high polyreactivity
QVQLVESGGGLVQAGGSLRLSCAASGRIFVYYAMGWYRQAPGKERELVAAITASGASTYYADSVKGRFTISRDNAKNTVYLQMNSLKPEDTAVYYCNVLYPRKYWQVREYYWGQGTQVTVSS | high polyreactivity
QVQLVESGGGLVQAGGSLRLSCAASGRIFVYYAMGWYRQAPGKERELVAAITYSVDSTYYADSVKGRFTISRDNAKNTVYLQMNSLKPEDTAVYDCATDVDWAYGYQYEYWGQGTQVTVSS | low polyreactivity
QVQLVESGGGLVQAGGSLRLSCAASGRIFVYYTMGWYRQAPGKERELVAAITGSGGSTYYADSVKGRFTISRDNAKNTVYLQMNCLKPEDTAVYYCAARYASTGGGYKYYYWGQGTQVTVSS | high polyreactivity
QVQLVESGGGLVQAGGSLRLSCAASGRIFVYYTMGWYRQAPGKERELVAAITGSGGSTYYADSVKGRFTISRDNAKNTVYLQMNSLKPEDTAVYYCAAQLGWWGSGYWGQGTQVTVSS | high polyreactivity
QVQLVESGGGLVQAGGSLRLSCAASGRIFWANAMGWYRQAPGKERELVAAISYSGVSTYYADSVKGRFTISRDNAKNTVYLQMNSLIPEDTAVYYCAADRYRKYYYWGQGTQVTVSS | high polyreactivity
QVQLVESGGGLVQAGGSLRLSCAASGRIFWANTMGWYRQAPGKERELVAAITYSGDSTYYADSVKGRFTISRDNAKNTVYLQMNSLKPEDTAVYYCNAVPSKFSWAVYRGQYDYDYWGQGTQVTVSS | low polyreactivity
QVQLVESGGGLVQAGGSLRLSCAASGRIFWAYAMGWYRQAPGKERELVAAINGSGGSTNYADSVKGRFTISRDNAKNTVYLQMNSLIPEDTAVYYCAADWSLRLYDYWGQGTQVTVSS | low polyreactivity
QVQLVESGGGLVQAGGSLRLSCAASGRIFWDNAMGWYRQAPGKERELVAAIDYRGGNTNYADSVKGRFTISRDNAKNTVYLQMNSLKPEDTAVYYCNAEWAVRYPGYDYWGQGTQVTVSS | low polyreactivity
QVQLVESGGGLVQAGGSLRLSCAASGRIFWDNAMGWYRQAPGKERELVAAISDSVVITYYADSVKGRFTISRDTAKNTVYLQMNSLKPEDTAVYYCGADKRGTVYLSSFWMDYWGQGTQVTVSS | low polyreactivity
QVQLVESGGGLVQAGGSLRLSCAASGRIFWDYAMGWYRQAPGKERELVAGISYSGGSTSYADSVKGRFTISRDNAKNTVYLQMKSLKPEDTAVYYCAAGPSGTFFRDYDYWGQGTQVTVSS | low polyreactivity
QVQLVESGGGLVQAGGSLRLSCAASGRIFWDYAMGWYRQAPGKERELVAVITFSGDSTYYADSVKGRFTISRDNAKNTVYLQMNSLKPEDTAVYYCAAARAIRQFWYVATFEYWGQGTQVTVSS | low polyreactivity
QVQLVESGGGLVQAGGSLRLSCAASGRIFWFNAMGWYRQAPGKERELVAAISGGSTNYADSVKGRFTISRDNAKNTVYLQMNSLKPEDTAVYYCAARYLRRYNWGQGTQVTVSS | high polyreactivity
QVQLVESGGGLVQAGGSLRLSCAASGRIFWGNAMGWYRQAPGKEWELVAAITRRGGTTFYADSVKGRFTISRDNAKNTVYLQMNSLKPEDTAVYYCAARRYGQYDGYDSWGQGTQVTVSS | high polyreactivity
QVQLVESGGGLVQAGGSLRLSCAASGRIFWGYAMGWYRQAPGKERELVAAISWSGGSTYYADSVKGRFTISRDNAKNTVYLQMNSLKPEDTAVYYCNAYSDGDEDYWGQGTQVTVSS | low polyreactivity
QVQLVESGGGLVQAGGSLRLSCAASGRIFWHNAMGWYRQAPGQERELVAAITGGGSTYYADSVKGRFSISRDDAKNTVYLQMNSLKPEDTAVYYCATLGSLRYYWPGYDYWGQGTQVTVSS | low polyreactivity

Sequence | polyreactivity (PSR sort gate)
QVQLVESGGGLVQAGGSLRLSCAASGRIFWHNTMGWYRQAPGKERELVATITGGDGNTYYADSVKGRFTISRDNAKNTVYLQMNSLKPEDNAVYYCAKAIVSYDYGRYGKWHEYWGQGTQVTVSS | low polyreactivity
QVQLVESGGGLVQAGGSLRLSCAASGRIFWQYAMGWYRQAPGNERELVAGITSNGGSTYYADSVKGRFTISRDNAKNTVYLQMNSLKPEDTAVYYCNKVRPGWTYEYGYWGQGTQVTVSS | high polyreactivity
QVQLVESGGGLVQAGGSLRLSCAASGRIFWRYAMGWYRQAPGKERELVAAITGRTGSTNYADSVKGRFTISRDNANNTVYLQMNSLKREDTAVYYCAAAHHRWTGLFPSGYEFDYWGQGTQVTVSS | low polyreactivity
QVQLVESGGGLVQAGGSLRLSCAASGRIFWSYPMGWYRQAPGKERELVAAITWRTGRTYYADSVKGRFTISRDNAKNTVYLQMNSLKPEDTAVYYCAAEGYLWGQSYNGLNYDSWGQGTQVTVSS | low polyreactivity
QVQLVESGGGLVQAGGSLRLSCAASGRIFWTYAMGWYRHAPGKERELVAVISIGGTTYYADTVKGRFTISRDNAKNTVYLQMNSLKPEDTAVYYSAAPPSNATGFLSYDYWGQGTQVTVSS | low polyreactivity
QVQLVESGGGLVQAGGSLRLSCAASGRIFWVYAMGGYRQAPGKERELVAAINTSVGRTHYADSVKGRFTISRDNAKNTVYLQMNSLKPEDTAVYYCAADVKRYGWEYGYWGQGTQVTVSS | low polyreactivity
QVQLVESGGGLVQAGGSLRLSCAASGRIFWVYAMGWSRQAPGKERERVAAITWRGVSTYFADSVKGRFTISRDNAKNTVYLQMNSLKPEDTAVYYCAVSLYGYSGNYGPYWYDYWGQGTQVTVSS | low polyreactivity
QVQLVESGGGLVQAGGSLRLSCAASGRIFWYNAMGWSRQAPGKERELVAAISSIDGTTYYADSLKGRFTISRDNAKNTFYLQMNSLKPEDTAVYYCAAEDPADQYDYWGQGTQVTVSS | high polyreactivity
QVQLVESGGGLVQAGGSLRLSCAASGRIFWYNAMGWSRQAPGKESELVAAISWRGSRTYYADSVKGRFTISRDNAKNTVYLQMNSLKPEDTAVYYCAADPDVYAYYGYDYWGQGTQVTVSS | high polyreactivity
QVQLVESGGGLVQAGGSLRLSCAASGRIFWYYGMGWYRQAPGKERELVAAIRGGGSTYYADSVKGRFTISRDNAKNTVYLQMNSLKPEETAVYYCAVDWSRFYNRGGDYWGQGTQVTVSS | high polyreactivity
QVQLVESGGGLVQAGGSLRLSCAASGRIFYANAMGWYRQAPGKERELVAAISQSGGSTFYADSVKGRFTISRDNAKNTVYLQMNSLKPEDTAVYYCATEYYGPVYDLDYDYWGQGTQVTVSS | low polyreactivity
QVQLVESGGGLVQAGGSLRLSCAASGRIFYANAMGWYRQAPGKERELVAAISSGGSTYYADSVKGRFTISRDNAKNTVYLQMNSLKPEDTAVYYCAVYTHKKVRPEYDYWGQGTQVTVSS | low polyreactivity
QVQLVESGGGLVQAGGSLRLSCAASGRIFYANAMGWYRQAPGKERELVAAISWSGGSTYYADSVKGRFTISRDNAKNTVYLQMNSLKPEDTAVYYCNALGRSYRSRRYDYWGQGTQVTVSS | high polyreactivity
QVQLVESGGGLVQAGGSLRLSCAASGRIFYANAMGWYRQAPGKERELVASISARGGSTYYADSVKGRFTISRDNAKNTVYLQMNSLKPEDTAVYYCAKRDTFKPYASLYDYWGQGTQVTVSS | high polyreactivity
QVQLVESGGGLVQAGGSLRLSCAASGRIFYANDMGWYRQAPGKERELVAAITNTVSTTYADSVKGRFTISRDNAKNTVYLQMNSLKPEDTAVYYCNADDPYVPKADMGYWGQGTQVTVSS | low polyreactivity
QVQLVESGGGLVQAGGSLRLSCAASGRIFYANDMGWYRQAPWKERELVAAITNTVSTTYADSVKGRFTISRDNAKNTVYLQMNSLKPEDTAVYYCNGDDPYVPKADMGYWGQGTQVTVSS | low polyreactivity
QVQLVESGGGLVQAGGSLRLSCAASGRIFYANTMGWYRQAPGKEWELVAAITSGGSTNYADSVKGRFTISRDNAKNTVYGQKNSLKPEDTAVYYCATKQRRGYWGYITAYARYYWGQGTQVTVSS | high polyreactivity
QVQLVESGGGLVQAGGSLRLSCAASGRIFYAYAMGWYRKAPGKERELVAAITETGGNTYYADSVKGRFTISRDNAKNTVYLQMNSLKPEDTAVYYCARKGRRTHHYGLYSSSVYYWGQGTQVTVSS | low polyreactivity
QVQLVESGGGLVQAGGSLRLSCAASGRIFYAYAMGWYRPAPGNERELVAAITISASSTYYADSVKGRFTISRDNAKNTVYLQMNSLKPEDTAVSYCAAAYRRPWWYSYRYGYWGQGTQVTVSS | high polyreactivity
QVQLVESGGGLVQAGGSLRLSCAASGRIFYAYAMGWYRQAPGKERELVARISYSGGNTYYADSVKGRFTISRDNAKNTVYLQMNSQKPEDTAVYYCNTDYRARFGYWGQGTQVTVSS | high polyreactivity
QVQLVESGGGLVQAGGSLRLSCAASGRIFYAYAMGWYRQAPGKERELVATITGIGGSTYADSVKGRFTISRDNAKNTVNLQMNSLKPEDTAVYYCNAERGVYWGRYPYKYDYWGQGTQVTVSS | low polyreactivity
